According to the supplement of paper PMC5998384:

How the values were obtained:
HeLa Kyoto [1] = assay: thermal stability score vs G1/S (z-score of summed log2 fold changes over temperatures); higher = more thermally stable than in G1/S
HeLa Kyoto [2] = assay: solubility in G1/S (NP-40 vs SDS abundance) (log2 ratio); higher = more soluble; settings: cell cycle stage: G1/S
HeLa Kyoto [3] = assay: melting temperature (median over replicates), in situ; higher = more thermally stable
HeLa Kyoto [4] = assay: solubility change mitosis vs G1/S (difference of NP-40 vs SDS log2 ratios) (log2 ratio difference); higher = more soluble in mitosis
[5] = cell cycle stage: early G1 (4.5 h after nocodazole release)
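Wherever melting temperature (median over replicates), in situ is given: HeLa Kyoto cells synchronized by double thymidine or nocodazole block, proteins quantified by TMT10plex mass spectrometry, three independent biological replicates.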
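Wherever solubility change mitosis vs G1/S (difference of NP-40 vs SDS log2 ratios) is given: synchronized HeLa Kyoto cells (double thymidine block for G1/S, nocodazole release for mitosis), protein amounts in NP-40 versus SDS lysates quantified by mass spectrometry, three biological replicates.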
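Wherever solubility in G1/S (NP-40 vs SDS abundance) is given: HeLa Kyoto cells arrested at G1/S by double thymidine block, proteins quantified by TMT10plex mass spectrometry in mild NP-40 versus SDS extracts, three biological replicates.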
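Wherever thermal stability score vs G1/S (z-score of summed log2 fold changes over temperatures) is given: synchronized HeLa Kyoto cells, proteins quantified by TMT10plex mass spectrometry, three biological replicates, mitosis taken 0.5 h after nocodazole release, G1/S directly after double thymidine block.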

Row | Substance | thermal stability score (HeLa Kyoto [1]; [5]) | thermal stability score (HeLa Kyoto [1]; cell cycle stage: mitosis) | solubility in G1/S (log2) (HeLa Kyoto [2]) | melting temperature (HeLa Kyoto [3]; cell cycle stage: G1/S) | melting temperature (HeLa Kyoto [3]; cell cycle stage: mitosis) | solubility change mitosis (log2) (HeLa Kyoto [4])
1 | MKRSSVSSGGAGRLSMQELRSQDVNKQGLYTPQTKEKPTFGKLSINKPTSERKVSLFGKRTSGHGSRNSQLGIFSSSEKIKDPRPLNDKAFIQQCIRQLCEFLTENGYAHNVSMKSLQAPSVKDFLKIFTFLYGFLCPSYELPDTKFEEEVPRIFKDLGYPFALSKSSMYTVGAPHTWPHIVAALVWLIDCIKIHTAMKESSPLFDDGQPWGEETEDGIMHNKLFLDYTIKCYESFMSGADSFDEMNAELQSKLKDLFNVDAFKLESLEAKNRALNEQIARLEQEREKEPNRLESLRKLKASLQGDVQKYQAYMSNLESHSAILDQKLNGLNEEIARVELECETIKQENTRLQNIIDNQKYSVADIERINHERNELQQTINKLTKDLEAEQQKLWNEELKYARGKEAIETQLAEYHKLARKLKLIPKGAENSKGYDFEIKFNPEAGANCLVKYRAQVYVPLKELLNETEEEINKALNKKMGLEDTLEQLNAMITESKRSVRTLKEEVQKLDDLYQQKIKEAEEEDEKCASELESLEKHKHLLESTVNQGLSEAMNELDAVQREYQLVVQTTTEERRKVGNNLQRLLEMVATHVGSVEKHLEEQIAKVDREYEECMSEDLSENIKEIRDKYEKKATLIKSSEE [NDC80] | 0.223 | 0.715 | 0.548 | 47.4 °C | 47.7 °C | 0.0863
2 | MVGREKELSIHFVPGSCRLVEEEVNIPNRRVLVTGATGLLGRAVHKEFQQNNWHAVGCGFRRARPKFEQVNLLDSNAVHHIIHDFQPHVIVHCAAERRPDVVENQPDAASQLNVDASGNLAKEAAAVGAFLIYISSDYVFDGTNPPYREEDIPAPLNLYGKTKLDGEKAVLENNLGAAVLRIPILYGEVEKLEESAVTVMFDKVQFSNKSANMDHWQQRFPTHVKDVATVCRQLAEKRMLDPSIKGTFHWSGNEQMTKYEMACAIADAFNLPSSHLRPITDSPVLGAQRPRNAQLDCSKLETLGIGQRTPFRIGIKESLWPFLIDKRWRQTVFH [MAT2B] | -0.304 | -1.94 | 0.344 | 55.5 °C | 56.3 °C | -0.0436
3 | MGLSPSAPAVAVQASNASASPPSGCPMHEGKMKGCPVNTEPSGPTCEKKTYSVPAHQERAYEYVECPIRGTAAENKENLDPSNLMPPPNQTPAPDQPFALSTVREESSIPRADSEKKWVYPSEQMFWNAMLKKGWKWKDEDISQKDMYNIIRIHNQNNEQAWKEILKWEALHAAECPCGPSLIRFGGKAKEYSPRARIRSWMGYELPFDRHDWIINRCGTEVRYVIDYYDGGEVNKDYQFTILDVRPALDSLSAVWDRMKVAWWRWTS [HCCS] | -0.00681 | -0.977 | 0.328 | 55.3 °C | 55.1 °C | -0.0745
4 | HCFC1 | -0.303 | 0.00236 | 0.179 | 52.5 °C | 52.7 °C | -0.0808
5 | MAQVAMSTLPVEDEESSESRMVVTFLMSALESMCKELAKSKAEVACIAVYETDVFVVGTERGRAFVNTRKDFQKDFVKYCVEEEEKAAEMHKMKSTTQANRMSVDAVEIETLRKTVEDYFCFCYGKALGKSTVVPVPYEKMLRDQSAVVVQGLPEGVAFKHPENYDLATLKWILENKAGISFIIKRPFLEPKKHVGGRVMVTDADRSILSPGGSCGPIKVKTEPTEDSGISLEMAAVTVKEESEDPDYYQYNIQAGPSETDDVDEKQPLSKPLQGSHHSSEGNEGTEMEVPAEDSTQHVPSETSEDPEVEVTIEDDDYSPPSKRPKANELPQPPVPEPANAGKRKVREFNFEKWNARITDLRKQVEELFERKYAQAIKAKGPVTIPYPLFQSHVEDLYVEGLPEGIPFRRPSTYGIPRLERILLAKERIRFVIKKHELLNSTREDLQLDKPASGVKEEWYARITKLRKMVDQLFCKKFAEALGSTEAKAVPYQKFEAHPNDLYVEGLPENIPFRSPSWYGIPRLEKIIQVGNRIKFVIKRPELLTHSTTEVTQPRTNTPVKEDWNVRITKLRKQVEEIFNLKFAQALGLTEAVKVPYPVFESNPEFLYVEGLPEGIPFRSPTWFGIPRLERIVRGSNKIKFVVKKPELVISYLPPGMASKINTKALQSPKRPRSPGSNSKVPEIEVTVEGPNNNNPQTSAVRTPTQTNGSNVPFKPRGREFSFEAWNAKITDLKQKVENLFNEKCGEALGLKQAVKVPFALFESFPEDFYVEGLPEGVPFRRPSTFGIPRLEKILRNKAKIKFIIKKPEMFETAIKESTSSKSPPRKINSSPNVNTTASGVEDLNIIQVTIPDDDNERLSKVEKARQLREQVNDLFSRKFGEAIGMGFPVKVPYRKITINPGCVVVDGMPPGVSFKAPSYLEISSMRRILDSAEFIKFTVIRPFPGLVINNQLVDQSESEGPVIQESAEPSQLEVPATEEIKETDGSSQIKQEPDPTW [GTF2I] | 6.54 | 16.3 | 0.0586 | 45.4 °C | 48.5 °C | 0.0472
6 | MNSMKTEENKSFSAMEDDQRTRPEVSKDTVMKQTHADTPVDHCLSGIRKCSSTFKLKSEVNKHETALEMQNPNLNNKECCFTFTLNGNSRKLDRSVFTAYGKPSESIYSALSANDYFSERIKNQFNKNIIVYEEKTIDGHINLGMPLKCLPSDSHFKITFGQRKSSKEDGHILRQCENPNMECILFHVVAIGRTRKKIVKINELHEKGSKLCIYALKGETIEGALCKDGRFRSDIGEFEWKLKEGHKKIYGKQSMVDEVSGKVLEMDISKKKALQQKDIHKKIKQNESATDEINHQSLIQSKKKVHKPKKDGETKDVEHSREQILPPQDLSHYIKDKTRQTIPRIRNYYFCSLPRKYRQINSQVRRRPHLGRRYAINLDVQKEAINLLKNYQTLNEAIMHQYPNFKEEAQWVRKYFREEQKRMNLSPAKQFNIYKKDFGKMTANSVSVATCEQLTYYSKSVGFMQWDNNGNTGNATCFVFNGGYIFTCRHVVHLMVGKNTHPSLWPDIISKCAKVTFTYTEFCPTPDNWFSIEPWLKVSNENLDYAILKLKENGNAFPPGLWRQISPQPSTGLIYLIGHPEGQIKKIDGCTVIPLNERLKKYPNDCQDGLVDLYDTTSNVYCMFTQRSFLSEVWNTHTLSYDTCFSDGSSGSPVFNASGKLVALHTFGLFYQRGFNVHALIEFGYSMDSILCDIKKTNESLYKSLNDEKLETYDEEKGKQESSLQDHQIEPMEC [FAM111B] | 2.69 | 4.09 | -0.274 | 46.9 °C | 50.3 °C | -7.96e-05
